Measurements: the RNAGym collection of RNA variant scans (doi:10.7554/elife.80360)

B1: Hairpin Ribozyme (parent)
chain: GUCCUCUUUCACGUGCGCGUGAAAGAGAGAAGUGAACCAGAGAAACACACGUUGUGGUAUAUUACCUGGUA

Variants of: B1
Assay: self-cleavage, relative activity (ratio to wild type); higher = more cleavage; co-transcriptional
In the case of GUCCUCUUUCACGUGCGCGUGAAAGAGAGAAGUGAACCAGAGAAACACACGUUGUGGUAUUUCACCUGGUA [A61U U63C], the self-cleavage is reported as 0.0398. GUCCUCUUUCACGUGCGCGUGAAAGAGAGAAGUGAACCAGAGAAACACACGUUGUGGUAUUUGACCUGGUA [A61U U63G] gave a self-cleavage of 0.187. For GUCCUCUUUCACGUGCGCGUGAAAGAGAGAAGUGAACCAGAGAAACACACGUUGUGGUACAUUACCUGGAA [U60C U70A], the self-cleavage was 1.29. With GUCCUCUUUCACGUGCGCGUGAAAGAGAGAAGUGAACCAGAGAAACACACGUUGUGGUAUAAUCCCUGGUA [U62A A64C] the self-cleavage was 0.164. GUCCUCUUUCACGUGCGCGUGAAAGAGAGAAGUGAACCAGAGAAACACACGUUGUGGUAUCUUAUCUGGUA [A61C C65U] gave a self-cleavage of 0.148. In the case of GUCCUCUUUCACGUGCGCGUGAAAGAGAGAAGUGAACCAGAGAAACACACGUUGUGGUACAUAACCUGGUA [U60C U63A], the self-cleavage is reported as 0.262. GUCCUCUUUCACGUGCGCGUGAAAGAGAGAAGUGAACCAGAGAAACACACGUUGUGGUACAUUACCAGGUA [U60C U67A] gave a self-cleavage of 0.324. Work on GUCCUCUUUCACGUGCGCGUGAAAGAGAGAAGUGAACCAGAGAAACACACGUUGUGGUAUAAAACCUGGUA [U62A U63A] yielded a self-cleavage of 0.12. GUCCUCUUUCACGUGCGCGUGAAAGAGAGAAGUGAACCAGAGAAACACACGUUGUGGUAUAAGACCUGGUA [U62A U63G] showed a self-cleavage of 0.112. Work on GUCCUCUUUCACGUGCGCGUGAAAGAGAGAAGUGAACCAGAGAAACACACGUUGUGGUAUAACACCUGGUA [U62A U63C] yielded a self-cleavage of 0.113. GUCCUCUUUCACGUGCGCGUGAAAGAGAGAAGUGAACCAGAGAAACACACGUUGUGGUAUUAUACCUGGUA [A61U U62A] gave a self-cleavage of 0.139. Work on GUCCUCUUUCACGUGCGCGUGAAAGAGAGAAGUGAACCAGAGAAACACACGUUGUGGUAUGUUACCUGGAA [A61G U70A] yielded a self-cleavage of 0.154. Variant GUCCUCUUUCACGUGCGCGUGAAAGAGAGAAGUGAACCAGAGAAACACACGUUGUGGUAGAUUAACUGGUA [U60G C65A] has a self-cleavage of 0.453. Variant GUCCUCUUUCACGUGCGCGUGAAAGAGAGAAGUGAACCAGAGAAACACACGUUGUGGUAGAUUAGCUGGUA [U60G C65G] has a self-cleavage of 0.442. GUCCUCUUUCACGUGCGCGUGAAAGAGAGAAGUGAACCAGAGAAACACACGUUGUGGUAUACUACCUUGUA [U62C G68U] gave a self-cleavage of 0.178. Work on GUCCUCUUUCACGUGCGCGUGAAAGAGAGAAGUGAACCAGAGAAACACACGUUGUGGUACAUUACCUCGUA [U60C G68C] yielded a self-cleavage of 0.25. For GUCCUCUUUCACGUGCGCGUGAAAGAGAGAAGUGAACCAGAGAAACACACGUUGUGGUAUACUAGCUGGUA [U62C C65G], the self-cleavage was 0.132. Variant GUCCUCUUUCACGUGCGCGUGAAAGAGAGAAGUGAACCAGAGAAACACACGUUGUGGUAGAUUACCCGGUA [U60G U67C] has a self-cleavage of 0.121. Work on GUCCUCUUUCACGUGCGCGUGAAAGAGAGAAGUGAACCAGAGAAACACACGUUGUGGUAUAAUACCUGGUA [U62A] yielded a self-cleavage of 0.185. Variant GUCCUCUUUCACGUGCGCGUGAAAGAGAGAAGUGAACCAGAGAAACACACGUUGUGGUAUACUACCUGGUA [U62C] has a self-cleavage of 0.268. Work on GUCCUCUUUCACGUGCGCGUGAAAGAGAGAAGUGAACCAGAGAAACACACGUUGUGGUAUCUUACCGGGUA [A61C U67G] yielded a self-cleavage of 0.24. Variant GUCCUCUUUCACGUGCGCGUGAAAGAGAGAAGUGAACCAGAGAAACACACGUUGUGGUAUGAUACCUGGUA [A61G U62A] has a self-cleavage of 0.198. Variant GUCCUCUUUCACGUGCGCGUGAAAGAGAGAAGUGAACCAGAGAAACACACGUUGUGGUAUCUUACCUCGUA [A61C G68C] has a self-cleavage of 0.153. Work on GUCCUCUUUCACGUGCGCGUGAAAGAGAGAAGUGAACCAGAGAAACACACGUUGUGGUAUGUUACCUAGUA [A61G G68A] yielded a self-cleavage of 0.275. GUCCUCUUUCACGUGCGCGUGAAAGAGAGAAGUGAACCAGAGAAACACACGUUGUGGUAUGUUACCUUGUA [A61G G68U] gave a self-cleavage of 0.163. GUCCUCUUUCACGUGCGCGUGAAAGAGAGAAGUGAACCAGAGAAACACACGUUGUGGUAUAAUACGUGGUA [U62A C66G] gave a self-cleavage of 0.188. Variant GUCCUCUUUCACGUGCGCGUGAAAGAGAGAAGUGAACCAGAGAAACACACGUUGUGGUAUGUUACCUGUUA [A61G G69U] has a self-cleavage of 0.128. In the case of GUCCUCUUUCACGUGCGCGUGAAAGAGAGAAGUGAACCAGAGAAACACACGUUGUGGUAUGUUACCUGCUA [A61G G69C], the self-cleavage is reported as 0.156. For GUCCUCUUUCACGUGCGCGUGAAAGAGAGAAGUGAACCAGAGAAACACACGUUGUGGUAUUUUACCUGAUA [A61U G69A], the self-cleavage was 0.145. Variant GUCCUCUUUCACGUGCGCGUGAAAGAGAGAAGUGAACCAGAGAAACACACGUUGUGGUAUUUUACCUGCUA [A61U G69C] has a self-cleavage of 0.283. GUCCUCUUUCACGUGCGCGUGAAAGAGAGAAGUGAACCAGAGAAACACACGUUGUGGUAUUUUACCUGUUA [A61U G69U] gave a self-cleavage of 0.152. For GUCCUCUUUCACGUGCGCGUGAAAGAGAGAAGUGAACCAGAGAAACACACGUUGUGGUACAUUACCUGAUA [U60C G69A], the self-cleavage was 0.51. GUCCUCUUUCACGUGCGCGUGAAAGAGAGAAGUGAACCAGAGAAACACACGUUGUGGUAUAAUACCUGGCA [U62A U70C] showed a self-cleavage of 0.219. In the case of GUCCUCUUUCACGUGCGCGUGAAAGAGAGAAGUGAACCAGAGAAACACACGUUGUGGUAUCUCACCUGGUA [A61C U63C], the self-cleavage is reported as 0.284. For GUCCUCUUUCACGUGCGCGUGAAAGAGAGAAGUGAACCAGAGAAACACACGUUGUGGUAUCUGACCUGGUA [A61C U63G], the self-cleavage was 0.12. Variant GUCCUCUUUCACGUGCGCGUGAAAGAGAGAAGUGAACCAGAGAAACACACGUUGUGGUAUACUACCCGGUA [U62C U67C] has a self-cleavage of 0.121. For GUCCUCUUUCACGUGCGCGUGAAAGAGAGAAGUGAACCAGAGAAACACACGUUGUGGUAUCUUACCUGGUC [A61C A71C], the self-cleavage was 0.285. For GUCCUCUUUCACGUGCGCGUGAAAGAGAGAAGUGAACCAGAGAAACACACGUUGUGGUAUCUUACCUGGUU [A61C A71U], the self-cleavage was 0.164.
